This series in a line: label from the status in PepcDB records.
For “MSDSLPQRNGGQILVEALRRNAVDTVYCIPGESYLPVLDALYDTDGIRTVVTRHEGAASNMADAYGKLTGRPGICFVTRGPGATHAANGVHTAQQDSTPMILFVGQVESAFKGREAFQEVDYVQMFSGLAKWAVEIDRIERIPEIVGRAFSVATSGRPGPVVVALPEEILFGSAQVADAPEPRVLPGRPGATAMAELRELLANARRPLLVLGGSGWDSAARKRLGAFVEANGLPVATSFRRQDLFDNRDPHYAGQLGFGAAPALLERLRQADLLLVVGARLGETPSAGYSLVRSPAPAQTLIHVHPDSAELNRVYLARLPIQATPCAFAEALADLAPLPSSTWQDWREAAHADYLAYSTPAASDPAVQGVDLASVVAYLSENLPDDAVIANGAGNYAVWVHRFYRYRQARTQLAPTNGAMGYGLPAAIAASLRDPQRSVVCFAGDGCFMMYPQELATAAQFGATPVVIVVNNGMLGTIRMHQEREYPGRVSATRLDNPDFVALARAFGAHAERVECSADFPAAFRRARESGRPALLELLTDPRQITPQA”, the protein production result was “failed”.
Consider “MTGKEEISSKYDDYSLKEVPKDSRYGFFNVFLVFSSVYGAIAVIWAGGALGYGLTFSQAIIAVLSGTVVLGILGSLTAAVGAYSGLSTYVMWRHPLGRWGGKIAGLLLITITTGIGWYAVETWLFGIVMSEIFPNNPFFSVGVAAIWGGILMTIMTYVGYRMLSFLSYFTIPFHIWLIAIGIAIVLALKGGFHTVMAAVPTSHMSLLDGISATIGLYSAGTIISPDISRFAKSAKDAGYAWFAHIIFLYPFLILGGVAIVLATGSYLITNAMLELGMGVGVLLIIVFGQFIINTDNLYSGSLSLVNLIPMRREIASVINGVIGTAIAAYVGFSAGSSITPFENFISLLGDFLPAMGGIVLADFYIVKKYVNKIQDPHKRYEFVPNNKYYNINIAGILALALGSIIGYFVNAGIPAINSLVTGFLSYIIIYYIIKAMGKSPEILPFNYEGGILR”, for which the protein production entry was “failed”.
In the case of “MKHGMNARKQLWIAVICMTFVVILGTIGFMTIEEISLFQAFWMTMITVLTVGYGDAVPVTQAGKVFALLIIPVGVGIVTYAIGVVAAMIIEGNLFHAVRRKKMDKQIAQLKNHIIVCGCGRVGLQVVHELQEKNIPFVVVDKDESILEQEKLLFVHGDATEDQVLHNAGILKAAGLVAIVANDAENVFITLTARGLNDTIKIVARSEKPETEEKLRRAGANKVINPSSMAGIHIAKGIANPLTVHYIDTVLYGIEQSFVIEEILVGKDSILVGKSLLESNVRNQFDVTILAISRNGDIIHNPAGQEKLKERDMIIVFGSVEKLGQFEKELQSTR”, the protein production result is “failed”.
The result for “MNIFTEAAKLEEQNCPFAMAQIVDSRGSTPRHSAQMLVRADGSIVGTIGGGMVERKVIEESLQALQERKPRLFHGRMARNGADAVGSDCGGAMSVFISVHGMRPRLVLIGAGHVNRAIAQSAALLGFDIAVADIYRESLNPELFPPSTTLLHAESFGAAVEALDIRPDNFVLIATNNQDREALDKLIEQPIAWLGLLASRRKVQLFLRQLREKGVAEEHIARLHAPVGYNIGAETPQEIAISVLAEILQVKNNAPGGLMMKPSHPSGHQLVVIRGAGDIASGVALRLYHAGFKVIMLEVEKPTVIRCTVAFAQAVFDGEMTVEGVTARLATSSAEAMKLTERGFIPVMVDPACSLLDELKPLCVVDAILAKQNLGTRADMAPVTIALGPGFTAGKDCHAVIETNRGHWLGQVIYSGCAQENTGVPGNIMGHTTRRVIRAPAAGIMRSNVKLGDLVKEGDVIAWIGEHEIKAPLTGMVRGLLNDGLAVVGGFKIGDIDPRGETADFTSVSDKARAIGGGVLEALMMLMHQGVKATKEVLEVALEHHHHHH” reads “failed”; that for “MSFVLWLVGKKCIVDVGTNGKNSWKVGGKDGVACRDHSGFRLEKLGLFCWWKLQKDGCGQKLNRRKDHRAFPLPSVVNERPRKLND”, “failed”; that for “MGEEAALDSFVKLEETLGEDEPCTARIIAPSSRAVLQSPTPPLPLKPHFLTNFPKYWSRPYLQAVPLHCQWERIPELVKQLSAKLIANDDMAELLLGESKLEQHLKEKPLRQGASPRGPRPQLTEVRKHLTAALDRGNLKSEFLQESNLVMAKLNYVEGDYKEALNIYARVGLDDLPLMAVPPYRLRMIAEAYATKGLCLEKLPVSSSTSNLHVDREQDVITCYEKAGDIALLYLQEIERVILTNIQNRSPKPGPAPHDQELGFFLETGLQRAHVLYFKNGNLTRGVGRFRELLRAVETRTTQNLRMTIARQLAEILLRGMCEQSYWNPLEEPPCQSPLDDPLRKGANTKTYTLPRRARVYSGENIFCPQENTEEALLLLLISESMANRDAVLSRIPEHKSDRLISLQSASVVYDLLTIALGRRGQYEMLSECLERAMKFAFEEFHLWYQFALSLMAAGKSARAVKVLKECIRLKPDDATIPLLAAKLCVGSLHWLEEAEKFAKTVVDVGEKTSEFKAKGYLALGLTYSLQATDASLRGMQEVLQRKALLALQRAHSLSPTDHQAAFYLALQLAISRQIPEALGYVRQALQLQGDDANSLHLLALLLSAQKHHHDALNIIDMALSEYPENFILLFSKVKLESLCRGPDEALLTCKHMLQIWKSCYNLTNPSDSGRGSSLLDRTIADRRQLNTITLPDFSDPETGSVHATSVAASRVEQALSEVASSLQSSAPKQGPLHPWMTLAQIWLHAAEVYIGIGKPAEATACTQEAANLFPMSHNVLYMRGQVAELRGNFDEARRWYEEALSISPTHVKSMQRLALVLHQLGRYSLAEKILRDAVQVNSTAHEVWNGLGEVLQAQGNDAAATECFLTALELEASSPAVPFTVIPRVL”, “failed”.
The result for “MSLTRPLRADAARNRARVLEVAYDTFAAEGLGVPMDEIARRAGVGAGTVYRHFPTKQALVVAVAEDRVRRIVDHARTLLAAEGPGEALFVFMRDMVRSAAADYGLVDALVGYGLDLEVAAPGAEAAFLATLGELLAAAQRAGTVRADVDVAVIKALLVVCKVPQVYDGEVSERVVRVIEDGLRVRSSVEGHHHHHH” reads “not failed”; that for “FLNSVLNFSLFLLNAHDSYLEVMRNRDTLSRMISSLEEVLDVSRRAELIEKTLHYLKDMFPGIVLSSVSLLEDGKIKTFFLKNGQIEVVNLKRGIVVKAFETKRDLFVNDVRDFPEFYDVTNGRTRSAAAIFFEYENTPLVLEIEKDSEITEYELSSLKMMARILAIFFSR”, “failed”; that for “AQNFSDYFTNKTLRIDYLFTGNADKQSICLDELSELPVWAGRRHHLSELPLEGNGQIVMRDVASGKVIYTTSFSSLFQEWLETDEAKEVTKGFENTYLLPYPIKPAEVEITLRNNKREVSANLKHVVKPDDILIHKKGLTHITPHKYLLKSGNEEQCIDVAILAEGYTTSEMETFYKDAAIACEALFSHEPFQSMKNRFNIVAVASPSADSGVSAPKQGAWKHTAFGSHFDTFYSDRYLTTSRVKAINDALAGIPYEHIIILANTEQYGGGGIYNAFTLTTAHHPNFRPVVVHEFGHSFGGLADEYFYDEDVMNGLYPLNIEPWEQNITTRINFASKWEDMLTKTTPVPTPVADKAKYPIGVYEGGGYSAKGIYRPAFDCRMRTNEYPTFCPVCQRAIQRIIEFYTGK”, “not failed”.
The result for “MDHHHHHHHHMPRTTGMNVAVVGGGISGLAVAHHLRSRGTDAVLLESSARLGGAVGTHALAGYLVEQGPNSFLDREPATRALAAALNLEGRIRAADPAAKRRYVYTRGRLRSVPASPPAFLASDILPLGARLRVAGELFSRRAPEGVDESLAAFGRRHLGHRATQVLLDAVQTGIYAGDVEQLSVAATFPMLVKMEREHRSLILGAIRAQKAQRQAALPAGTAPKLSGALSTFDGGLQVLIDALAASLGDAAHVGARVEGLAREDGGWRLIIEEHGRRAELSVAQVVLAAPAHATAKLLRPLDDALAALVAGIAYAPIAVVHLGFDAGTLPAPDGFGFLVPAEEQRRMLGAIHASTTFPFRAEGGRVLYSCMVGGARQPGLVEQDEDALAALAREELKALAGVTARPSFTRVFRWPLGIPQYNLGHLERVAAIDAALQRLPGLHLIGNAYKGVGLNDCIRNAAQLADALVAGNTSHAP” reads “not failed”.
For “DDVTLLTVPGWGNSGDTHWHGYWEKTYPLARRAEQRDWLYPTRDEWVAGLAAAVAEIPGKLVIAAHSLGCHTTVAWLLQATLLEQRKVKGALLVAPPAIPLTDERARASGELPEGAPLPTFAGFETLPERKLPVPALLVASRDDPFCEFEEARRMAELWGAEFVDGGMAGHMGSHAGLGSWPAGQRLLQRLI”, the protein production entry is reported as “failed”.
Consider “MKDGMKQQKLVEKMTIEEKAAILSGKTVWQTREIDRLSIPSIFLSDGPHGIRKQAGTGDHLGLNASLNATCFPTAATIANSWNQNLGEEIGQALGEEAASMDVNILLGPGLNIKRSPLCGRNFEYFSEDPYLSGKMAASYIRGIQSKGVYACPKHLAVNSQELRRMAMDAVVDERTLREIYLTGFEIAVKEGHAKAIMSSYNQINGIYANEDKHLLTDILRKDWGFDGIVVTDWGGSNDHVKGVAAGSNLEMPSCGYDSAREVIAAVQNGKLKEADLDERVGELVDAVMELTSGKKLSDKNFDRNEHHQLARKAAAESMILLKNEKQILPLDTKKSIAVIGDFAFSPRYQGAGSSMVNPTKVEDMSSILQQYDLNILGMTRGYHRNGDVDENDRKFALNLSMNADIVIFCFGLDEISESEGLDRTHMRIPQDQIDLLQDISKVNENVIGILSAGSAIEMPWHTCCKAILHGYLNGQAGASATLDILTGKVNPSGRLAETYPISYEQTPAYRYYPSNEKTSEYRESVYVGYRYYDTSKVRVQYPFGFGLSYTEFTYSDLIIEEDGIKVSVTNTGDRDGAEVVQMYVGLPNAIVFRPEKELKGFAKVYLKAGESRQIRIPFDDKTFRYWNIKTGQWEIETGTYQIMVGASVADIRLTGMTERTGNSKGYPYNPAKMPYYYTGIVQKISDEEFRELLGHEIPNRRWSGNLEINDAICQMYYAKSRLARLIYRCLTKMKKKSEAQGKPDLNILFIYNMPFRGIAKMTGGAVSMEMVYGIVDAVNGHFMLGVKKIIGGYFRNRRNNKKYEKLLKGAGGKCR”, for which the protein production entry was “failed”.
The result for “MEEGPIKKKLKSAGQGSGKTDAFRNFEQFFFRLNTLYTFLICRKHVVPTFKTLCGPIETALKRTVTKEDLAMVMALMPRECVFKYIDENQIYTETKIFDFNNGGFQQKENDIFELKDVDDQNQTQKSTQLLIFEFIDGTMQRSWSASDRFSQIKIPTYTTEEMKKMISKREALFKSRLREFILEKEKANLDPFSELTNLAQKYIPRERDYEDPIEAMMKAKQESNEMSIPNYSNNSVITTIPQMIEKLKSTEFYASQIKHCFTIPSRTAKYKGLCFELAPEVYQGMEHENFYSHQADAINSLHQGENVIITTSTSSGKSLIYQLAAIDLLLKDPESTFMYIFPTKALAQDQKRAFKVILSKIPELKNAVVDTYDGDTEPEERAYIRKNARVIFTNPDMIHTSILPNHANWRHFLYHLKLVVVDELHIYKGLFGSHVALVMRRLLRLCHCFYENSGLQFISCSATLKSPVQHMKDMFGINEVTLIHEDGSPTGAKHLVVWNPPILPQHERKRENFIRESAKILVQLILNNVRTIAFCYVRRVCELLMKEVRNIFIETGREDLVTEVMSYRGGYSASDRRKIEREMFHGNLKAVISTNALELGIDIGGLDAVLMCGFPLSMANFHQQSGRAGRRNNDSLTLVVASDSPVDQHYVAHPESLLEVNNFESYQDLVLDFNNILILEGHIQCAAFELPINFERDKQYFTESHLRKICVERLHHNQDGYHASNRFLPWPSKCVSLRGGEEDQFAVVDITNGRNIIIEEIEASRTSFTLYDGGIFIHQGYPYLVKEFNPDERYAKVQRVDVDWVTNQRDFTDVDPQEIELIRSLRNSDVPVYFGKIKTTIIVFGFFKVDKYKRIIDAIETHNPPVIINSKGLWIDMPKYALEICQKKQLNVAGAIHGAQHAIMGMLPRFIVAGVDEIQTECKAPEKEFAERQTKRKRPARLIFYDSKGGKYGSGLCVKAFEHIDDIIESSLRRIEECPCSDGCPDCVAASFCKENSLVLSKPGAQVVLHCILGHSEDSFIDLIKDGPEPNMPEIKVETVIPVSEHVNFSDDFKIIDVRRATKDDTHTNEIIKKEI” reads “failed”.

The values above are taken from a protein production outcome set (Wang et al. 2014).
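Also: failed if final PepcDB status was selected cloned or expressed and not failed if soluble or beyond.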
